We go through 8 molecules from patent US7090834B1, “Vascular endothelial cell growth factor variants and uses thereof” (Genentech, Inc., priority 1999, dated 2006).

In one test the test system is HUVEC cells. The experiment in a line: HUVEC migration, modified Boyden chamber assay. Type of test: cell-based, human. To be noted: highest concentration of inhibitor, migration in response to native VEGF, 4 hours, FIG. 14B. Here is the method: One of the central aspects of VEGF action on endothelial cells is its ability to act as a chemoattractant and stimulate the migration of endothelial cells. HUVEC cell migration was analyzed in a modified Boyden chamber assay as follows.
Falcon 8.0 micron filter inserts (Falcon 3097) were coated with type 1 collagen (VITROGEN, COHESION). HUVEC (obtained from Cell Systems, <passage 8) were grown in Cell Systems complete media (4ZO-500) with 10% FCS. Cells were trypsinized and transferred to EBM (Endothelial basal media, Clonetics) with 0.1% BSA for the assay. Cells were plated at 5×10^4 per upper chamber. […] The assay was routinely an 18 hour assay at 37° C. For the LY294002 inhibitor experiments, cells were allowed to adhere for 30 minutes prior to addition of the inhibitor. 20 minutes after inhibitor addition, VEGF was added to the bottom well and the assay was allowed to proceed for only 4 hours to avoid the occurrence of apoptosis associated with the treatment of these primary cells with LY294002 (purchased from Biomol).
Cells were removed from the upper side of the membrane by scraping with a polyurethane swab and then the remaining cells on the bottom side of the membrane were fixed with methanol. Cells were stained with Yo-Pro Iodide nuclear stain (Molecular Probes) and counted under low power fluorescence using an Image-Pro cell recognition program.

The target in test [1] is Flt-1 receptor. The experiment in a line: RIA assay, binding to FLT-1 receptor. Here is the method:
Various assays were conducted to examine the properties and biological activities of the I43A/I46A/Q79A/I83A Flt-sel variant. For example, quantitative binding measurements were carried out using a soluble radio-immuno receptor-binding assay (RIA), as described in Example 6 above.
Target sequence in this assay (P17948 27-331 limits assumed): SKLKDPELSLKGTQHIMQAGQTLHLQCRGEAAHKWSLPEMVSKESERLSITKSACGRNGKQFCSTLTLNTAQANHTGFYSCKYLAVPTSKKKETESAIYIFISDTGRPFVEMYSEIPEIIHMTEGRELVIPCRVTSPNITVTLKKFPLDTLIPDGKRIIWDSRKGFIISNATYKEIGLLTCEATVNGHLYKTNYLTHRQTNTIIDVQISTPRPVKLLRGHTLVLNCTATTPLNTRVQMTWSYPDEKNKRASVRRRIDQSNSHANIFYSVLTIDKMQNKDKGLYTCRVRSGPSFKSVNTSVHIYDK

For the next test, the system named is PLC-gamma in HUVEC cells. The experiment in a line: PLC-gamma tyrosine phosphorylation after immunoprecipitation. Type of test: cell-based, human. To be noted: 20 ng/ml, 5 minutes, FIG. 13A. The method, then: In order to determine which VEGF receptor(s) are involved in PLC-gamma activation in primary endothelial cells, HUVEC cells were treated with native VEGF or VEGF receptor-selective variants and PLC-gamma phosphorylation was assessed after immunoprecipitation.
Passage 4–7 HUVEC cells (Cell Systems, Kirkland, Wash.) were grown in Cell System's complete medium (AZ0-500) with 10% fetal calf serum and growth factors on gelatin-coated dishes and made quiescent by 14 hour starvation in 0.2% serum. […] The cells were then lysed in 0.5–1 ml RIPA buffer containing 0.1 mM sodium orthovanadate, 5 mM para-nitrophenylphosphate, 10 mM sodium fluoride, 0.5 micromolar okadaic acid and a protease inhibitor cocktail (Roche MB 1836145). PLC-gamma was then immunoprecipitated from whole cell lysates using monoclonal antibodies (Upstate Biotechnology) and analyzed for tyrosine phosphorylation (FIG. 13A) or lysates were immunoprecipitated with monoclonal antibodies against p85 PI 3′-kinase (purchased from Transduction Labs (P13020) and Neomarkers (MS424-P)) and tested for phosphotyrosine using phosphotyrosine antibodies PY20 or E120H (Transduction Labs) (FIG. 13B). Immunoprecipitation was conducted as follows. Protein A/G beads (Pierce) were blocked for nonspecific protein binding in 50 mM HEPES pH 7.2, 0.1% TX-100, 150 mM NaCl and 1 mg/ml ovalbumin for 30 minutes. Antibodies were precoupled in the same buffer for 1 hour at 4° C. with head over end rotation and beads were washed 3 times in lysis buffer. Beads were added to the lysates and rotated overnight. Beads were washed sequentially in 50 mM Tris pH 7.6, 150 mM NaCl, 1% TX-100, 1 mM CaCl2; 50 mM Tris pH 7.6, 500 mM NaCl, 0.1% TX-100, 1 mM CaCl2 and 50 mM Tris pH 7.6, 150 mM NaCl, 0.05% TX-100, 1 mM CaCl2. Beads were then resuspended in 2× sample buffer and boiled. Supernatants were applied directly to 4–12% Tris-Glycine gradient gels (Novex).

The target of test [2] is KDR receptor on HUVEC cells (human, UniProt P35968 20-1356). Briefly: cell-based or functional assay.
Chain of KDR receptor on HUVEC cells (P35968 20-1356): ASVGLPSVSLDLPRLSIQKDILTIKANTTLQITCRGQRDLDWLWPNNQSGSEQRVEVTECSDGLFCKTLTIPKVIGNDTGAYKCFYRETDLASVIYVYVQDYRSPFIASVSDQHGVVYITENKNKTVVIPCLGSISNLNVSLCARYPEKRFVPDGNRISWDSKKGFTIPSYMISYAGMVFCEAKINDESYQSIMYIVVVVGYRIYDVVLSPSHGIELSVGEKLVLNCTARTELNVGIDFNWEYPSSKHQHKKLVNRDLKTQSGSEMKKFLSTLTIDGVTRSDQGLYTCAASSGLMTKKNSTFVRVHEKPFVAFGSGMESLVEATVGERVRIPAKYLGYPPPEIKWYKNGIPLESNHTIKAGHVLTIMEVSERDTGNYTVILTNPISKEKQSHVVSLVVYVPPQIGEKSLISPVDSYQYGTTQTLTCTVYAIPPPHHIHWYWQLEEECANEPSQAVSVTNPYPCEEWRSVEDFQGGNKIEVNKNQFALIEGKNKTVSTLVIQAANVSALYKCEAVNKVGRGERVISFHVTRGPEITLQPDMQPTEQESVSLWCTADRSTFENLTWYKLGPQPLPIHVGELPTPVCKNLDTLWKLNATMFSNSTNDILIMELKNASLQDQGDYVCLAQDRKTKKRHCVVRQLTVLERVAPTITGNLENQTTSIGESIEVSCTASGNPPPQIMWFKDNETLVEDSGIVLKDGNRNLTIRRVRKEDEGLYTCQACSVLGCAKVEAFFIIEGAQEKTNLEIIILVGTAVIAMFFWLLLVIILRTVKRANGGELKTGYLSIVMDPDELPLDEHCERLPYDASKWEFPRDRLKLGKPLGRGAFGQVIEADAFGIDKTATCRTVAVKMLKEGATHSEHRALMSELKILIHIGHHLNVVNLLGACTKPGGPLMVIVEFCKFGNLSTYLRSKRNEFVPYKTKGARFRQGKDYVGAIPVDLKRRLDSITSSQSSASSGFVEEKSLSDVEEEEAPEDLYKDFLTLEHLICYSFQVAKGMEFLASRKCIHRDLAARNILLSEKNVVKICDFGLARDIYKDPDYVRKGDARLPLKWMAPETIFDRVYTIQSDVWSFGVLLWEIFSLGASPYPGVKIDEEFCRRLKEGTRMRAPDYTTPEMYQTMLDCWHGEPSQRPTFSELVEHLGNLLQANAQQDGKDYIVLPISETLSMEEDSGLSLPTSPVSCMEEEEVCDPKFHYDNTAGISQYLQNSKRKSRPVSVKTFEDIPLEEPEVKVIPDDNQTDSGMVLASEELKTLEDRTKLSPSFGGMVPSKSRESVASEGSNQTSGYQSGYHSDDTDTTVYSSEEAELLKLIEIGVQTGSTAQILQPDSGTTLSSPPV
Test [3] addresses Flt-1 receptor. Briefly: Flt-1 receptor binding ELISA (inhibition of biotinylated native VEGF binding to Flt-IgG). To be noted: for Relative Binding Affinity, FLT-1 Receptor: concentration at midpoint absorbance: first figure of the cell, Flt-IgG; for Relative Binding Affinity, FLT-1 Receptor: ratio to native VEGF (8–109): second figure of the cell, fold less binding than native VEGF. The method, then:
(§1) Receptor binding assays were performed in 96-well immunoplates (Maxisorp, Nunc-Immunoplate, Nalge Nunc International, Rochester, N.Y.). Each well was coated with 100 μl of a solution containing 2 μg/ml of rabbit F(ab′)2 to human IgG Fc (Jackson ImmunoResearch, West Grove, Pa.) in 50 mM carbonate buffer at pH 9.6 and incubated at 4° C. overnight. The supernatant was then discarded, the wells were washed three times in washing buffer (0.05% Tween 20 in PBS), and the plate was blocked (150 μl per well) with block buffer (0.5% BSA, 0.01% thimerosal in PBS) at room temperature for one hour. The supernatant was discarded, and the wells were washed.
(§2) The wells were filled with 100 μl of a solution containing Flt-IgG (a chimeric Flt-human Fc molecule) at 50 ng/ml in assay buffer (0.5% BSA, 0.05% Tween 20 in PBS). The wells were incubated at room temperature for 1 hour and then washed three times in wash buffer (0.05% Tween 20 in PBS).
Aliquots of the mixture (100 μl) were added to the precoated microtiter wells and the plate was incubated for 2 hours at room temperature. […] The wells were then incubated with 3, 3′, 5,5′-tetramethyl benzidine (0.2 g/liter, Kirkegaard & Perry Laboratories, Gaithersburg, Md.) for about 10 minutes at room temperature. Absorbance was read at 450 nm on a Vmax plate reader (Molecular Devices, Menlo Park, Calif.).
(§3) Titration curves were fit with a four-parameter nonlinear regression curve-fitting program (KaleidaGraph, Synergy Software, Reading, Pa.).
Target sequence in this assay (P17948 27-327 limits assumed): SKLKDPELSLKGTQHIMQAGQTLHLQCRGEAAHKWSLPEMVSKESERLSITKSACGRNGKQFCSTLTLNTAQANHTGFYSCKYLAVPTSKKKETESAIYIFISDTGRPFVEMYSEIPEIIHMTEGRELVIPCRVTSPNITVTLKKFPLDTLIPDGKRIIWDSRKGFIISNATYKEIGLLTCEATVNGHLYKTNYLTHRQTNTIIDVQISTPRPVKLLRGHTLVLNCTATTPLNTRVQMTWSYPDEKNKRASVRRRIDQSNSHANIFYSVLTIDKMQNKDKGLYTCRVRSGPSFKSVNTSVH
(In an ELISA, binding on a coated surface is turned into a signal by an enzyme label.)

The next test addresses T1, KDR (1-3) (UniProt P35968 20-327, limits assumed).
T1 construct: domain: domains 1 to 3; Genentech reagent; also called KDR (1-3) monomer; domains 1 to 3 of KDR
The experiment in a line: competition ELISA vs biotinylated native VEGF (8-109) for KDR (1-3). The method, then:
as §1, with “containing 8” for “containing 2”, “of a monoclonal antibody” for “of rabbit F(ab′)2”, “to KDR known as MAKD5 (Genentech, South San Francisco, Calif.)” for “to human IgG Fc (Jackson ImmunoResearch, West Grove, Pa.)”, “was” for “was then”
Aliquots of this mixture (100 μl) were added to the precoated microtiter wells and the plate was incubated for 1 hour at room temperature. […] The wells were then incubated with 3, 3', 5,5'-tetramethyl benzidine (0.2 gram/liter; Kirkegaard & Perry Laboratories, Gaithersburg, Md.) for about 10 minutes at room temperature. Absorbance was read at 450 nm on a Vmax plate reader (Molecular Devices, Menlo Park, Calif.).
as §3

Another test has as its target T2, Flt-IgG (UniProt P17948 27-758, limits assumed).
T2 construct: also called chimeric Flt-human Fc molecule; not shown: human IgG Fc
Briefly: competition ELISA vs biotinylated native VEGF for Flt-IgG. The method, then:
as §1, with “F(ab')2” for “F(ab′)2”
as §2
Aliquots of the mixture (100 μl) were added to the precoated microtiter wells and the plate was incubated for 2 hours at room temperature. […] The wells were then incubated with 3, 3', 5,5'-tetramethyl benzidine (0.2 g/liter, Kirkegaard & Perry Laboratories, Gaithersburg, Md.) for about 10 minutes at room temperature. Absorbance was read at 450 nm on a Vmax plate reader (Molecular Devices, Menlo Park, Calif.).

The target in a further test is KDR receptor (Homo sapiens, UniProt P35968). The experiment in a line: KDR receptor binding ELISA (inhibition of biotinylated native VEGF (8–109) binding). To be noted: second figure of the cell, variant midpoint concentration divided by that of native VEGF. Here is the method:
as §1, with “containing 8” for “containing 2”, “of a monoclonal antibody” for “of rabbit F(ab′)2”, “to KDR known as MAKD5 (Genentech, South San Francisco, Calif.)” for “to human IgG Fc (Jackson ImmunoResearch, West Grove, Pa.)”, “was” for “was then”
Aliquots of this mixture (100 μl) were added to the precoated microtiter wells and the plate was incubated for 1 hour at room temperature. […] The wells were then incubated with 3, 3′, 5,5′-tetramethyl benzidine (0.2 gram/liter; Kirkegaard & Perry Laboratories, Gaithersburg, Md.) for about 10 minutes at room temperature. Absorbance was read at 450 nm on a Vmax plate reader (Molecular Devices, Menlo Park, Calif.).
as §3

Test [4] concerns the target gD-KDR receptor on CHO cells (UniProt P35968 20-1356). Briefly: cell-based or functional assay.

Like-named read-outs stand apart in the source and are kept apart here.

Chain of KDR receptor (P35968 20-327 limits assumed): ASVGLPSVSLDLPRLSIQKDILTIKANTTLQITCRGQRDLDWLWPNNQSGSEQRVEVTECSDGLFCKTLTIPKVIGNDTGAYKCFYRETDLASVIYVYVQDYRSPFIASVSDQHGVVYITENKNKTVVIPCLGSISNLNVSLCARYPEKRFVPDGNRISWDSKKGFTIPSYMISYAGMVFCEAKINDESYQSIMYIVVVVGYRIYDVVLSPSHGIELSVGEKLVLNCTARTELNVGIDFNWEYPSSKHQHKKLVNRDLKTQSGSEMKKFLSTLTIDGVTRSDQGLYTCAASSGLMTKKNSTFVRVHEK
T1 sequence (P35968 20-327 limits assumed): as above
T2 sequence (P17948 27-758 limits assumed): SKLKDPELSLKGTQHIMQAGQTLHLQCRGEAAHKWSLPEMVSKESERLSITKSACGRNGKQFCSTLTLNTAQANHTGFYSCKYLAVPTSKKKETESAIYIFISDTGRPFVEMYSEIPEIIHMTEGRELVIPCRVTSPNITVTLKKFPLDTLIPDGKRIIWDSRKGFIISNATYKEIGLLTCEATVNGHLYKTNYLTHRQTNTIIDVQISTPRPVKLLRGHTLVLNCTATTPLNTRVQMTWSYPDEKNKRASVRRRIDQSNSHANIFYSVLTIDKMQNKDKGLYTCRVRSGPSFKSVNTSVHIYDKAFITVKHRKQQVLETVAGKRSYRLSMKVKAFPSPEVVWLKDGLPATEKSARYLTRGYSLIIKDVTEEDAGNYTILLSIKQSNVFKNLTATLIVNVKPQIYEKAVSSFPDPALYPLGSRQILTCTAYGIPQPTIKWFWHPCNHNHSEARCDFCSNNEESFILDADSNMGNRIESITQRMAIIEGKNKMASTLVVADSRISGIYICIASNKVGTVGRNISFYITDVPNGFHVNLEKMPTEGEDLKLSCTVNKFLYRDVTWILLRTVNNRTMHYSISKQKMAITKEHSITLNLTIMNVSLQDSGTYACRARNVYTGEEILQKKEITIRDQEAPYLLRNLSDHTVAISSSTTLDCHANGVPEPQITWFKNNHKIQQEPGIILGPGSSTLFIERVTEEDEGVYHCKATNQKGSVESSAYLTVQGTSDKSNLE

For `O=c1cc(N2CCOCC2)oc2c(-c3ccccc3)cccc12` [LY 294002, reference compound], in the test on HUVEC cells, the “inhibition of HUVEC cell migration” value worked out at 56%.
As for “Native VEGF (8–109): truncated native VEGF comprising amino acids 8 to 109 of the 165-amino acid vascular endothelial cell growth factor [reference compound]”, at Flt-1 receptor [1] (Example 8, FIG. 8B, read-out: affinity for Flt-1 (RIA)), the Kd stood at 0.4 nM.
For “Native VEGF 165: 165-amino acid native vascular endothelial cell growth factor [reference compound]”, the PLC-gamma phosphorylation entry in the test with PLC-gamma in HUVEC cells is listed as “able to stimulate PLC-gamma phosphorylation to a similar extent”. At Flt-1 receptor [1] (Table 6, read-out: Binding affinity, FLT-1 Receptor (RIA), value in parentheses), the Kd came out at 0.037 nM.

B1: LK-VRB-8s* (ligand)
chain: APMAEGGGQNHHEVVKFMDVLQRSYCHPIETLVDIFQEYPDEIEYIFKPSCVPLMRCGGCCNSEMRECVPTEESNITMQIMRIKPHQGQHIGEMSFLQHNKCECRPKKD
Turning to B1, in [2], the Endothelial Cell Proliferation Activity (HUVEC, 3H-thymidine) stood at 0.5 nM and the Endothelial Cell Proliferation Activity (HUVEC, 3H-thymidine) (ratio to native VEGF (8-109)) stood at 1. At Flt-1 receptor [3], the “Relative Binding Affinity, FLT-1 Receptor: concentration at midpoint absorbance” value was “beyond the sensitivity of the ELISA assay” and the “Relative Binding Affinity, FLT-1 Receptor: ratio to native VEGF (8–109)” value is “/>21000”. Moreover, the “relative binding affinity (ratio to native VEGF (8-109))” value in the test with KDR (1-3) turned out to be 0.5 ratio. For the same molecule, the “relative binding affinity (ratio to native VEGF (8-109))” value with Flt-IgG was greater than 21000 ratio. In addition, in the test with KDR receptor, the “Relative Binding Affinity, KDR Receptor: ratio to native VEGF (8–109)” value turned out to be 0.5 nM/0.5.

B2: LK-VRB-3s (ligand, human, UniProt P15692-4 27-135, looked up)
chain: APMAEGGGQNHHEVVKIEDVFKRSSCHPIETLVDIFQEYPDEIEYIFKPSCVPLMRCGGCCNDEGLECVPTEESNITMQIMRIKPHQGQHIGEMSFLQHNKCECRPKKD
For B2, the “relative binding affinity (ratio to native VEGF (8-109))” value with KDR (1-3) was 1 ratio; in the test with Flt-IgG, 400 ratio. Besides, the “Phosphorylation-Inducing Activity (KIRA assay)” value in [4] is 1 ratio to native VEGF (8-109).

B3: LK-VRB-7s* (ligand, human, UniProt P15692-4 27-135, looked up)
chain: APMAEGGGQNHHEVVKFEDVYQRSYCHPIETLVDIFQEYPDEIEYIFKPSCVPLMRCGGCCNSEMRECVPTEESNITMQIMRIKPHQGQHIGEMSFLQHNKCECRPKKD
Take B3: the “Endothelial Cell Proliferation Activity (HUVEC, 3H-thymidine)” value in test [2] is 1 ratio to native VEGF (8-109). Besides, the “Relative Binding Affinity, FLT-1 Receptor: concentration at midpoint absorbance” value at Flt-1 receptor [3] is given as “beyond the sensitivity of the ELISA assay”. In addition, in the test with Flt-1 receptor [3], the “Relative Binding Affinity, FLT-1 Receptor: ratio to native VEGF (8–109)” value was “/>15000”. Further, the “relative binding affinity (ratio to native VEGF (8-109))” value in the test with KDR (1-3) was 1 ratio; with Flt-IgG, greater than 15000 ratio. Further, in the test with KDR receptor, the “Relative Binding Affinity, KDR Receptor: ratio to native VEGF (8–109)” value is recorded as 1 nM/1.

B4: LK-VRB-9s (ligand, human, UniProt P15692-4 27-135, looked up)
chain: APMAEGGGQNHHEVVKFMDVYRRSYCHPIETLVDIFQEYPDEIEYIFKPSCVPLMRCGGCCNSEMRECVPTEESNITMQIMRIKPHQGQHIGEMSFLQHNKCECRPKKD
With B4, the “Relative Binding Affinity, FLT-1 Receptor: ratio to native VEGF (8–109)” value in the test with Flt-1 receptor [3] was “/300”. Also, the results for the “relative binding affinity (ratio to native VEGF (8-109))” value with KDR (1-3) and in the test with Flt-IgG were 0.5 ratio and 300 ratio, respectively. For the same molecule, in the test with KDR receptor, the “Relative Binding Affinity, KDR Receptor: ratio to native VEGF (8–109)” value is 0.5 nM/0.5.

B5: native VEGF (8-109) (ligand, human, UniProt P15692 214-315, looked up)
chain: GQNHHEVVKFMDVYQRSYCHPIETLVDIFQEYPDEIEYIFKPSCVPLMRCGGCCNDEGLECVPTEESNITMQIMRIKPHQGQHIGEMSFLQHNKCECRPKKD
notes: Homodimer
Take B5: the “Endothelial Cell Proliferation Activity (HUVEC, 3H-thymidine)” value in [2] worked out at 0.5 nM. For the same molecule, in test [4], the “Phosphorylation-Inducing Activity (KIRA assay)” value came to 2 nM. In addition, the IC50 with Flt-IgG came to 0.42 nM.

A word on the IC50: it is the concentration that inhibits the measured activity by half. A low value points to higher potency.
